In patent US20250277023A1 (published 2025) one finds EC50 data, which are given here for five molecules.

Assay [1] has as its target T1, PD-L1 (on CHO-PD-L1 cells) (UniProt Q9NZQ7 19-290). Kind of assay: FACS binding; Fig. 25. (In general: In flow cytometry, cells or beads pass a laser one at a time.)
For assay [2], the target named is T1, PD-L1 (on CHO-PD-L1 cells). Kind of assay: FACS binding; Fig. 24.
The target of assay [3] is T1, PD-L1 (on CHO-PD-L1 cells). Kind of assay: FACS binding; Fig. 22.

T1 sequence (Q9NZQ7 19-290): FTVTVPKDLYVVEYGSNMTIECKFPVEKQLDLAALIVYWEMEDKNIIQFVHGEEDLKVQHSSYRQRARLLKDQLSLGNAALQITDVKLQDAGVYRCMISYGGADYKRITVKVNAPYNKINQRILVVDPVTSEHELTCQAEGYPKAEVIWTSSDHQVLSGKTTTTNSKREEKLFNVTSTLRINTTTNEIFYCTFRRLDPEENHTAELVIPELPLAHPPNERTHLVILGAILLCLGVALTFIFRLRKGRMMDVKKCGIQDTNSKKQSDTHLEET

B1: R0968 (PD-L1 monoclonal antibody) (antibody, V domains shown)
VH: QVQLQESGPGLVKPSETLSLTCAVYGDSITSGYWNWIRKPPGKCLEYIGYISYTGSTYQNPSLKSRITMSRDTSKNQYYLKLSSVTAADTAVYYCARSRAWIRTYFDYWGQGTLVTVSS
VL: DIQMTQSPSSLSASVGDRVTITCSVSSSISSSNLHWYQQKPGKAPKPWIYGTSNLASGVPSRFSGSGSGTDYTLTISSLQPEDFATYYCQQWSSYPLTFGCGTKLEIK
One may read the EC50 as the concentration at which the effect is half-maximal. Consider B1, for which the EC50 in assay [1] came out at 2.91 nM; in assay [2] it was 2.01 nM.

B2: R1110: TIGIT_VH_IL15RA (sushi65 T2A)/TIGIT_VL_IL15/PD-L1-Fab (bispecific antibody)
chain 1: QVQLVQSGAEVKKPGSSVKVSCKASGYSFTSYWMNWVRQAPGQGLEWIGMIRPSDSETRLNQMFKDRVTITVDKSTSTAYMELSSLRSEDTAVYYCAGIHDYGHGAYWGQGTLVTVSSGGGGSGGGGSGGGGSGGGGSGIACPPPMSVEHADIWVKSYSLYSRERYICNSGFKRKAGTSSLTECVLNKATNVAHWTTPSLKCIREPKSSDKTHTCPPCPAPELLGGPSVFLFPPKPKDTLMISRTPEVTCVVVDVSHEDPEVKFNWYVDGVEVHNAKTKPREEQYNSTYRVVSVLTVLHQDWLNGKEYKCKVSNKALPAPIEKTISKAKGQPREPQVYTLPPSREEMTKNQVSLTCRVKGFYPSDIAVEWESNGQPENNYKTTPPVLKSDGSFFLASKLTVDKSRWQQGNVFSCSVMHEALHNHYTQKSLSLSPGK
chain 2: DIQMTQSPSSLSASVGDRVTITCRASENIYSNLAWYQQKPGKSPKLLVYAASHLPDGVPSRFSGSGSGTDYSLTISSLQPEDFATYYCQHFWGTPRTFGQGTKLEIKGGGGSGGGGSGGGGSGGGGSGNWVNVISDLKKIEDLIQSMHIDATLYTESDVHPSCKVTAMKCFLLELQVISLESGDASIHNTVQDLIILANNSLSSNGNVTESGCKECEELEEKNIKEFLQSFVHIVQMFINTS
heavy: QVQLQESGPGLVKPSETLSLTCAVYGDSITSGYWNWIRKPPGKGLEYIGYISYTGSTYQNPSLKSRITMSRDTSKNQYYLKLSSVTAADTAVYYCARSRAWIRTYFDYWGQGTLVTVSSASTKGPSVFPLAPSSKSTSGGTAALGCLVKDYFPEPVTVSWNSGALTSGVHTFPAVLQSSGLYSLSSVVTVPSSSLGTQTYICNVNHKPSNTKVDKRVEPKSCDKTHTCPPCPAPELLGGPSVFLFPPKPKDTLMISRTPEVTCVVVDVSHEDPEVKFNWYVDGVEVHNAKTKPREEQYNSTYRVVSVLTVLHQDWLNGKEYKCKVSNKALPAPIEKTISKAKGQPREPQVYTLPPSREEMTKNQVSLWCLVKGFYPSDIAVEWESNGQPENNYDTTPPVLDSDGSFFLYSDLTVDKSRWQQGNVFSCSVMHEALHNHYTQKSLSLSPGK
light: DIQMTQSPSSLSASVGDRVTITCSVSSSISSSNLHWYQQKPGKAPKPWIYGTSNLASGVPSRFSGSGSGTDYTLTISSLQPEDFATYYCQQWSSYPLTFGQGTKLEIKRTVAAPSVFIFPPSDEQLKSGTASVVCLLNNFYPREAKVQWKVDNALQSGNSQESVTEQDSKDSTYSLSSTLTLSKADYEKHKVYACEVTHQGLSSPVTKSFNRGEC
On to B2, for which, in assay [1], the EC50 was found to be 1.53 nM.

B3: R1111: TIGIT_VH_IL15RA (sushi65 T2A, T81A, T86A)/TIGIT_VL_IL15/PD-L1-Fab (bispecific antibody)
chain 1: QVQLVQSGAEVKKPGSSVKVSCKASGYSFTSYWMNWVRQAPGQGLEWIGMIRPSDSETRLNQMFKDRVTITVDKSTSTAYMELSSLRSEDTAVYYCAGIHDYGHGAYWGQGTLVTVSSGGGGSGGGGSGGGGSGGGGSGIACPPPMSVEHADIWVKSYSLYSRERYICNSGFKRKAGTSSLTECVLNKATNVAHWTTPSLKCIRDPALVHQRPAPPSTVATAGVAPQPESLSPSGKEPAASSPSSNNTAATTAEPKSSDKTHTCPPCPAPELLGGPSVFLFPPKPKDTLMISRTPEVTCVVVDVSHEDPEVKFNWYVDGVEVHNAKTKPREEQYNSTYRVVSVLTVLHQDWLNGKEYKCKVSNKALPAPIEKTISKAKGQPREPQVYTLPPSREEMTKNQVSLTCRVKGFYPSDIAVEWESNGQPENNYKTTPPVLKSDGSFFLASKLTVDKSRWQQGNVFSCSVMHEALHNHYTQKSLSLSPGK
chain 2: DIQMTQSPSSLSASVGDRVTITCRASENIYSNLAWYQQKPGKSPKLLVYAASHLPDGVPSRFSGSGSGTDYSLTISSLQPEDFATYYCQHFWGTPRTFGQGTKLEIKGGGGSGGGGSGGGGSGGGGSGNWVNVISDLKKIEDLIQSMHIDATLYTESDVHPSCKVTAMKCFLLELQVISLESGDASIHNTVQDLIILANNSLSSNGNVTESGCKECEELEEKNIKEFLQSFVHIVQMFINTS
heavy: QVQLQESGPGLVKPSETLSLTCAVYGDSITSGYWNWIRKPPGKGLEYIGYISYTGSTYQNPSLKSRITMSRDTSKNQYYLKLSSVTAADTAVYYCARSRAWIRTYFDYWGQGTLVTVSSASTKGPSVFPLAPSSKSTSGGTAALGCLVKDYFPEPVTVSWNSGALTSGVHTFPAVLQSSGLYSLSSVVTVPSSSLGTQTYICNVNHKPSNTKVDKRVEPKSCDKTHTCPPCPAPELLGGPSVFLFPPKPKDTLMISRTPEVTCVVVDVSHEDPEVKFNWYVDGVEVHNAKTKPREEQYNSTYRVVSVLTVLHQDWLNGKEYKCKVSNKALPAPIEKTISKAKGQPREPQVYTLPPSREEMTKNQVSLWCLVKGFYPSDIAVEWESNGQPENNYDTTPPVLDSDGSFFLYSDLTVDKSRWQQGNVFSCSVMHEALHNHYTQKSLSLSPGK
light: DIQMTQSPSSLSASVGDRVTITCSVSSSISSSNLHWYQQKPGKAPKPWIYGTSNLASGVPSRFSGSGSGTDYTLTISSLQPEDFATYYCQQWSSYPLTFGQGTKLEIKRTVAAPSVFIFPPSDEQLKSGTASVVCLLNNFYPREAKVQWKVDNALQSGNSQESVTEQDSKDSTYSLSSTLTLSKADYEKHKVYACEVTHQGLSSPVTKSFNRGEC
B3: a half-maximal effect in assay [1] (EC50) was put at 2.39 nM.

B4: R1072: TIGIT_VH_IL15RA/TIGIT_VL_IL15/PD-L1-Fab (bispecific antibody)
chain 1: QVQLVQSGAEVKKPGSSVKVSCKASGYSFTSYWMNWVRQAPGQGLEWIGMIRPSDSETRLNQMFKDRVTITVDKSTSTAYMELSSLRSEDTAVYYCAGIHDYGHGAYWGQGTLVTVSSGGGGSGGGGSGGGGSGGGGSGITCPPPMSVEHADIWVKSYSLYSRERYICNSGFKRKAGTSSLTECVLNKATNVAHWTTPSLKCIRDPALVHQRPAPPSTVTTAGVTPQPESLSPSGKEPAASSPSSNNTAATTAAIVPGSQLMPSKSPSTGTTEISSHESSHGTPSQTTAKNWELTASASHQPPGVYPQGHSDTTEPKSSDKTHTCPPCPAPELLGGPSVFLFPPKPKDTLMISRTPEVTCVVVDVSHEDPEVKFNWYVDGVEVHNAKTKPREEQYNSTYRVVSVLTVLHQDWLNGKEYKCKVSNKALPAPIEKTISKAKGQPREPQVYTLPPSREEMTKNQVSLTCRVKGFYPSDIAVEWESNGQPENNYKTTPPVLKSDGSFFLASKLTVDKSRWQQGNVFSCSVMHEALHNHYTQKSLSLSPGK
chain 2: DIQMTQSPSSLSASVGDRVTITCRASENIYSNLAWYQQKPGKSPKLLVYAASHLPDGVPSRFSGSGSGTDYSLTISSLQPEDFATYYCQHFWGTPRTFGQGTKLEIKGGGGSGGGGSGGGGSGGGGSGNWVNVISDLKKIEDLIQSMHIDATLYTESDVHPSCKVTAMKCFLLELQVISLESGDASIHNTVQDLIILANNSLSSNGNVTESGCKECEELEEKNIKEFLQSFVHIVQMFINTS
heavy: QVQLQESGPGLVKPSETLSLTCAVYGDSITSGYWNWIRKPPGKGLEYIGYISYTGSTYQNPSLKSRITMSRDTSKNQYYLKLSSVTAADTAVYYCARSRAWIRTYFDYWGQGTLVTVSSASTKGPSVFPLAPSSKSTSGGTAALGCLVKDYFPEPVTVSWNSGALTSGVHTFPAVLQSSGLYSLSSVVTVPSSSLGTQTYICNVNHKPSNTKVDKRVEPKSCDKTHTCPPCPAPELLGGPSVFLFPPKPKDTLMISRTPEVTCVVVDVSHEDPEVKFNWYVDGVEVHNAKTKPREEQYNSTYRVVSVLTVLHQDWLNGKEYKCKVSNKALPAPIEKTISKAKGQPREPQVYTLPPSREEMTKNQVSLWCLVKGFYPSDIAVEWESNGQPENNYDTTPPVLDSDGSFFLYSDLTVDKSRWQQGNVFSCSVMHEALHNHYTQKSLSLSPGK
light: DIQMTQSPSSLSASVGDRVTITCSVSSSISSSNLHWYQQKPGKAPKPWIYGTSNLASGVPSRFSGSGSGTDYTLTISSLQPEDFATYYCQQWSSYPLTFGQGTKLEIKRTVAAPSVFIFPPSDEQLKSGTASVVCLLNNFYPREAKVQWKVDNALQSGNSQESVTEQDSKDSTYSLSSTLTLSKADYEKHKVYACEVTHQGLSSPVTKSFNRGEC
As to B4, the EC50 in assay [1] was determined as 2.08 nM; in assay [3], 3.73 nM; in assay [2], 2 nM.

B5: R1109: TIGIT_VH_IL15RA (sushi65)/TIGIT_VL_IL15/PD-L1-Fab (bispecific antibody)
chain 1: QVQLVQSGAEVKKPGSSVKVSCKASGYSFTSYWMNWVRQAPGQGLEWIGMIRPSDSETRLNQMFKDRVTITVDKSTSTAYMELSSLRSEDTAVYYCAGIHDYGHGAYWGQGTLVTVSSGGGGSGGGGSGGGGSGGGGSGITCPPPMSVEHADIWVKSYSLYSRERYICNSGFKRKAGTSSLTECVLNKATNVAHWTTPSLKCIREPKSSDKTHTCPPCPAPELLGGPSVFLFPPKPKDTLMISRTPEVTCVVVDVSHEDPEVKFNWYVDGVEVHNAKTKPREEQYNSTYRVVSVLTVLHQDWLNGKEYKCKVSNKALPAPIEKTISKAKGQPREPQVYTLPPSREEMTKNQVSLTCRVKGFYPSDIAVEWESNGQPENNYKTTPPVLKSDGSFFLASKLTVDKSRWQQGNVFSCSVMHEALHNHYTQKSLSLSPGK
chain 2: DIQMTQSPSSLSASVGDRVTITCRASENIYSNLAWYQQKPGKSPKLLVYAASHLPDGVPSRFSGSGSGTDYSLTISSLQPEDFATYYCQHFWGTPRTFGQGTKLEIKGGGGSGGGGSGGGGSGGGGSGNWVNVISDLKKIEDLIQSMHIDATLYTESDVHPSCKVTAMKCFLLELQVISLESGDASIHNTVQDLIILANNSLSSNGNVTESGCKECEELEEKNIKEFLQSFVHIVQMFINTS
heavy: QVQLQESGPGLVKPSETLSLTCAVYGDSITSGYWNWIRKPPGKGLEYIGYISYTGSTYQNPSLKSRITMSRDTSKNQYYLKLSSVTAADTAVYYCARSRAWIRTYFDYWGQGTLVTVSSASTKGPSVFPLAPSSKSTSGGTAALGCLVKDYFPEPVTVSWNSGALTSGVHTFPAVLQSSGLYSLSSVVTVPSSSLGTQTYICNVNHKPSNTKVDKRVEPKSCDKTHTCPPCPAPELLGGPSVFLFPPKPKDTLMISRTPEVTCVVVDVSHEDPEVKFNWYVDGVEVHNAKTKPREEQYNSTYRVVSVLTVLHQDWLNGKEYKCKVSNKALPAPIEKTISKAKGQPREPQVYTLPPSREEMTKNQVSLWCLVKGFYPSDIAVEWESNGQPENNYDTTPPVLDSDGSFFLYSDLTVDKSRWQQGNVFSCSVMHEALHNHYTQKSLSLSPGK
light: DIQMTQSPSSLSASVGDRVTITCSVSSSISSSNLHWYQQKPGKAPKPWIYGTSNLASGVPSRFSGSGSGTDYTLTISSLQPEDFATYYCQQWSSYPLTFGQGTKLEIKRTVAAPSVFIFPPSDEQLKSGTASVVCLLNNFYPREAKVQWKVDNALQSGNSQESVTEQDSKDSTYSLSSTLTLSKADYEKHKVYACEVTHQGLSSPVTKSFNRGEC
In turn, B5 had an EC50 in assay [1] of 1.56 nM.
